Laboratory results from article PMC6519459 (Science (New York, N.Y.), 2018).

Molecular target: Rpn11 (deubiquitinase of the lid, 3XFLAG-tagged, in the 26S holoenzyme) (S. cerevisiae, UniProt P43588 1-306)
Experiment: cryo-EM structure

B1: ubiquitin (S. cerevisiae), the proximal, substrate-attached moiety of the polyubiquitin chain (natural protein)
chain: not shown
modifications: C terminus joined to the substrate lysine by an isopeptide bond; part of a K63-linked chain
- binding result: binds
